For six molecules, Kd results are on record in paper PMC12855868, “Deep Mutational Scanning of FDX1 Identifies Key Structural Determinants of Lipoylation and Cuproptosis” (Nature Communications, 2025).

Assay [1] deals with T1, FDXR (a.a 33-491), tagless (human, UniProt P22570 33-491, labelled with the RED-NHS 2nd generation protein labeling kit).
T1 construct: ferredoxin reductase (FDXR), human, residues 33-491, lacking the mitochondrial transit peptide; pDWSUMO; Cleavage of the SUMO tag by ULP1 leaves a Gly-His appendage at the N-terminus; also called ferredoxin reductase; mitochondrial NADPH-dependent ferredoxin reductase; source: E. coli BL21 (DE3), purified; not shown: His6-SUMO, N-terminal, cleaved
T1 sequence (looked up): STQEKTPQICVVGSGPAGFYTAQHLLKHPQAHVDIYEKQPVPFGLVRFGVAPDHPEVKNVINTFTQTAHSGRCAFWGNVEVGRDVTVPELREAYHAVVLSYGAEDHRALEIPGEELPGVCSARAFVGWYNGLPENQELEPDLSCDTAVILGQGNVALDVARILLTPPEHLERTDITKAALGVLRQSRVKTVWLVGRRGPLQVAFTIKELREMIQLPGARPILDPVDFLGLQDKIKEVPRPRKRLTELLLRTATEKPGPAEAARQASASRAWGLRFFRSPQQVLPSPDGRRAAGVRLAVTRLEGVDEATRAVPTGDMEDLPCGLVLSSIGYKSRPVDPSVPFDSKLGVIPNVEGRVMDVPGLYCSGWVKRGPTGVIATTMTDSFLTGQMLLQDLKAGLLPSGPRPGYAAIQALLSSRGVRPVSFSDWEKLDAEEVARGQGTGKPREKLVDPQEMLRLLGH
Briefly: Temperature-Related Intensity Change (TRIC) fluorescence; 50 nM RED-NHS-labelled tagless FDXR as target, His-tagged FDX1 WT or variant serially diluted (11 points from 54-68 µM); anaerobic; 25 mM MOPS pH 7.5, 125 mM KCl, 125 mM NaCl, 5% glycerol, 0.05% Tween; 30 min at room temperature, read at 22 °C; Dianthus NT.23. Conditions: both partners purified.

The target in assay [2] is T2, LIAS (aa 28-372), tagless (UniProt O43766 28-372).
T2 construct: lipoic acid synthase (LIAS), residues 28-372, lacking the mitochondrial transit peptide; pDWSUMO; Cleavage of the SUMO tag by ULP1 leaves a Gly-His appendage at the N-terminus; Carries reconstituted Fe-S clusters; also called lipoic acid synthase; source: E. coli BL21 (DE3) carrying pDB1282, purified, iron-sulfur clusters reconstituted; not shown: His6-SUMO, N-terminal, cleaved
T2 sequence (looked up): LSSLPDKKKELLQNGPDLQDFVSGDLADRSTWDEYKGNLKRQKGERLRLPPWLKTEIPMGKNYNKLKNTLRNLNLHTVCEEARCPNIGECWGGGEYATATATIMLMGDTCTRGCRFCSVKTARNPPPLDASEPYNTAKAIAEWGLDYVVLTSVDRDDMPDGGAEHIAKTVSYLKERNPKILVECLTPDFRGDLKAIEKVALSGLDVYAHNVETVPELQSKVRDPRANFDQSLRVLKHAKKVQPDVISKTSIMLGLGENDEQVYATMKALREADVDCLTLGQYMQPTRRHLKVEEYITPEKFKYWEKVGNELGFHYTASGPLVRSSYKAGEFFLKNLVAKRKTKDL
Briefly: Temperature-Related Intensity Change (TRIC) fluorescence; 100 nM Red-Tris-NTA-labelled His-tagged FDX1 WT or variant as target, tagless LIAS serially diluted (10 points from 63 µM); anaerobic; 25 mM MOPS pH 7.5, 125 mM KCl, 125 mM NaCl, 5% glycerol, 0.05% Tween; 30 min at room temperature, read at 22 °C; Dianthus NT.23. Conditions: both partners purified.

The target of assay [3] is T3, FDX1 WT (aa 61-184), N-terminal hexa-histidine tag (human), P10109.
T3 chain: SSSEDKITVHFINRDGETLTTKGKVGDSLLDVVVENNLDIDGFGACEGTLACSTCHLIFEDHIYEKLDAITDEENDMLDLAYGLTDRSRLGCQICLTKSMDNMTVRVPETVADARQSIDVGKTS
The description is as above. Conditions: remark: other sources report otherwise.

B1: FDX1 WT (aa 61-184), N-terminal hexa-histidine tag (domain or fragment, human, UniProt P10109 61-184, looked up)
chain: SSSEDKITVHFINRDGETLTTKGKVGDSLLDVVVENNLDIDGFGACEGTLACSTCHLIFEDHIYEKLDAITDEENDMLDLAYGLTDRSRLGCQICLTKSMDNMTVRVPETVADARQSIDVGKTS
notes: ferredoxin 1 (FDX1), human, residues 61-184, lacking the mitochondrial transit peptide; pET28a; Carries a reconstituted Fe-S cluster; In the FDX1-LIAS TRIC assay it was labelled on the His tag with the Red-Tris-NTA 2nd generation dye; in the FDXR assay it was the unlabelled ligand; also called ferredoxin 1; source: E. coli BL21 (DE3) carrying pDB1282, purified, iron-sulfur cluster reconstituted; …
Take B1: in assay [1], the affinity, expressed as Kd, was 1500 ± 200 nM.

B2: FDX1 D139A (aa 61-184), N-terminal hexa-histidine tag (domain or fragment, human, UniProt P10109 61-184, looked up)
chain: SSSEDKITVHFINRDGETLTTKGKVGDSLLDVVVENNLDIDGFGACEGTLACSTCHLIFEDHIYEKLDAITDEENDMLALAYGLTDRSRLGCQICLTKSMDNMTVRVPETVADARQSIDVGKTS
notes: ferredoxin 1 (FDX1), human, residues 61-184, lacking the mitochondrial transit peptide; pET28a; Carries a reconstituted Fe-S cluster; Labelled with Red-Tris-NTA dye in the LIAS assay only; source: E. coli BL21 (DE3) carrying pDB1282, purified, iron-sulfur cluster reconstituted; not shown: His6, N-terminal, kept
As to B2, the equilibrium dissociation constant (Kd) in assay [1] stood at 1500 ± 300 nM; in assay [2], 4900 ± 600 nM.

B3: FDX1 D136A (aa 61-184), N-terminal hexa-histidine tag (domain or fragment, human, UniProt P10109 61-184, looked up)
chain: SSSEDKITVHFINRDGETLTTKGKVGDSLLDVVVENNLDIDGFGACEGTLACSTCHLIFEDHIYEKLDAITDEENAMLDLAYGLTDRSRLGCQICLTKSMDNMTVRVPETVADARQSIDVGKTS
notes: as for B2
B3: the Kd in assay [1] is 1800 ± 300 nM; in assay [2], 3200 ± 300 nM.

B4: FDX1 D139R (aa 61-184), N-terminal hexa-histidine tag (domain or fragment, human, UniProt P10109 61-184, looked up)
chain: SSSEDKITVHFINRDGETLTTKGKVGDSLLDVVVENNLDIDGFGACEGTLACSTCHLIFEDHIYEKLDAITDEENDMLRLAYGLTDRSRLGCQICLTKSMDNMTVRVPETVADARQSIDVGKTS
notes: as for B2
Consider B4, for which the Kd is 2100 ± 200 nM in assay [1] and 2500 ± 600 nM in assay [2].

B5: FDX1 D136R (aa 61-184), N-terminal hexa-histidine tag (domain or fragment, human, UniProt P10109 61-184, looked up)
chain: SSSEDKITVHFINRDGETLTTKGKVGDSLLDVVVENNLDIDGFGACEGTLACSTCHLIFEDHIYEKLDAITDEENRMLDLAYGLTDRSRLGCQICLTKSMDNMTVRVPETVADARQSIDVGKTS
notes: as for B2
As to B5, the equilibrium dissociation constant (Kd) in assay [1] was found to be 2200 ± 300 nM; in assay [2], 4500 ± 800 nM.

B6: LIAS (aa 28-372), tagless, O43766 28-372 (enzyme)
chain: LSSLPDKKKELLQNGPDLQDFVSGDLADRSTWDEYKGNLKRQKGERLRLPPWLKTEIPMGKNYNKLKNTLRNLNLHTVCEEARCPNIGECWGGGEYATATATIMLMGDTCTRGCRFCSVKTARNPPPLDASEPYNTAKAIAEWGLDYVVLTSVDRDDMPDGGAEHIAKTVSYLKERNPKILVECLTPDFRGDLKAIEKVALSGLDVYAHNVETVPELQSKVRDPRANFDQSLRVLKHAKKVQPDVISKTSIMLGLGENDEQVYATMKALREADVDCLTLGQYMQPTRRHLKVEEYITPEKFKYWEKVGNELGFHYTASGPLVRSSYKAGEFFLKNLVAKRKTKDL
With B6, in assay [3], the Kd came out at 3200 nM.

For orientation: Kd means the concentration at which binding is half-saturated. Low values mean tighter binding, high ones weaker binding.
